The source of these data is US20250353926A1.

The test concerns the target PSMA expressed on target cells (PC3pip cells, high density; 22Rv1 cells, low density) (UniProt Q04609). Briefly: cell-based or functional assay.

Chain of PSMA expressed on target cells (PC3pip cells, high density; 22Rv1 cells, low density) (Q04609 whole entry): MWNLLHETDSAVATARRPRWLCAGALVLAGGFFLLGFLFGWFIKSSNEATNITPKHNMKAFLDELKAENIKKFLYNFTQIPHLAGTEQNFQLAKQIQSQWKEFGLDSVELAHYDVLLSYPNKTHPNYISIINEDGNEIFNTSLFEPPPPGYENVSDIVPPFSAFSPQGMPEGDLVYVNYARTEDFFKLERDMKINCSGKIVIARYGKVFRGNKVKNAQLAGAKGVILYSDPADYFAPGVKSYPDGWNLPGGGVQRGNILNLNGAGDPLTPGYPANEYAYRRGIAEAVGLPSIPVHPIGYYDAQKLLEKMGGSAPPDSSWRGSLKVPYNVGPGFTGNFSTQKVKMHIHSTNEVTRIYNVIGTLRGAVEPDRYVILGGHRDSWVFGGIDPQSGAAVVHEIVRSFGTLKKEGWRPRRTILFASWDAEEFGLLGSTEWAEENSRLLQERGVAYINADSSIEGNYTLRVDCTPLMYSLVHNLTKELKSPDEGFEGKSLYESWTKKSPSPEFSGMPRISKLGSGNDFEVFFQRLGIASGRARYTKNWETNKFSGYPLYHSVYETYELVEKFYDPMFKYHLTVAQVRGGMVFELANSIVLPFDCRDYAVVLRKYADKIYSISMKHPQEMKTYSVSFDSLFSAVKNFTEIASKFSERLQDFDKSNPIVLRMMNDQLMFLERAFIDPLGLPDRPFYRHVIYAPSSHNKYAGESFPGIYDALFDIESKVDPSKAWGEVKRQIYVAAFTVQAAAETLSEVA

The substance monoclonal anti-PSMA antibody, J591 yielded an EC50; ADCC luciferase reporter assay (Jurkat CD16a V158 reporter cells), PC3pip 24 h continuous of 0.16 nM; an EC50; ADCC reporter assay, 22Rv1 4 h washout, 24 h endpoint of more than 500 nM; an EC50; ADCC reporter assay, PC3pip 4 h washout, 24 h endpoint of 0.044 nM.
